The values that follow come from publication doi:10.1101/202184 (bioRxiv, 2017).

The labels stand for the following.
B1: SecE (subunit of Escherichia coli SecYEG) (natural protein)
chain: MSANTEAQGSGRGLEAMKWVVVVALLLVAIVGNYLYRDIMLPLRALAVVILIAAAGGVALLTTKGKATVAFAREARTEVRKVIWPTRQETLHTTLIVAAVTAVMSLILWGLDGILVRLVSFITGLRF

The target in assay [1] is T1, SecY (wild type, subunit of Escherichia coli SecYEG) (E. coli, UniProt P0AGA2 1-443).
T1 sequence: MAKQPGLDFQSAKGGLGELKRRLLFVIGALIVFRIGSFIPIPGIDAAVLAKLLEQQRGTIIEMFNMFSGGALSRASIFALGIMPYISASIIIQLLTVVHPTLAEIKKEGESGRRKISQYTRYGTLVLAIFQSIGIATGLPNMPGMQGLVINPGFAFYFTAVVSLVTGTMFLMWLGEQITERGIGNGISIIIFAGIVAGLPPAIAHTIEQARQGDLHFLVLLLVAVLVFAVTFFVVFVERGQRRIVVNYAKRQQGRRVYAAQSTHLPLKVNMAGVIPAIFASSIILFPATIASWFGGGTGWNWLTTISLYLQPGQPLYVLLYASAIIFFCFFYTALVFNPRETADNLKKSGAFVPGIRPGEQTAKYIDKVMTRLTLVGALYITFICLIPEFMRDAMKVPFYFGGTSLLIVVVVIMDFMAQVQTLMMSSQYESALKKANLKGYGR
The assay can be described thus: native MS.

Assay [2] concerns the target B1. The assay can be described thus: native MS.

Take B1: the binding result in assay [1] is recorded as “binds”.

B2: SecG (subunit of Escherichia coli SecYEG) (natural protein)
chain: MYEALLVVFLIVAIGLVGLIMLQQGKGADMGASFGAGASATLFGSSGSGNFMTRMTALLATLFFIISLVLGNINSNKTNKGSEWENLSAPAKTEQTQPAAPAKPTSDIPN
As for B2, the binding result in assay [1] and in assay [2] was “binds” throughout.
